This is an account of results in the Immune Epitope Database (IEDB).

One assay has as its target HLA-A*02:01. The experiment in a line: IEDB peptide-MHC binding, purified MHC/competitive/fluorescence; filed as Kd, often an IC50 or EC50 that approximates it; ≥ and ≤ were set here for values at or beyond the usual limits of such assays.
The next assay concerns the target HLA-B*46:01. The assay is described as above.
In the next assay the target is HLA-B*51:01. Described as above.
A further assay has as its target HLA-B*39:01. The description is as above.
In another assay the target is HLA-A*69:01. The description is as above.
A further assay addresses HLA-B*27:03. The description is as above.
In the next assay the target is HLA-A*26:01. The assay is described as above.
The next assay deals with HLA-B*18:01. The description is as above.
The target of another assay is HLA-B*15:01. Described as above.
The next assay addresses HLA-B*15:17. The assay is described as above. The following applies: source organism: Zaire ebolavirus.
The next assay concerns the target HLA-B*57:01. The assay is described as above.
Assay [1] addresses HLA-A*02:19. The experiment in a line: IEDB peptide-MHC binding, purified MHC/direct/fluorescence; filed as Kd, often an IC50 or EC50 that approximates it; ≥ and ≤ were set here for values at or beyond the usual limits of such assays. The following applies: source organism: Zaire ebolavirus.
In assay [2] the target is HLA-A*02:03. The assay is described as above. Conditions: source organism: Zaire ebolavirus.
In assay [3] the target is HLA-A*02:12. The description is as above. The following applies: source organism: Zaire ebolavirus.
The target in assay [4] is HLA-A*23:01. The assay is described as above. Conditions: source organism: Zaire ebolavirus.
Assay [5] has as its target HLA-A*29:02. The assay is described as above. Conditions: source organism: Zaire ebolavirus.
Another assay has as its target HLA-A*02:11. Described as above. Conditions: source organism: Zaire ebolavirus.
The target of another assay is HLA-A*02:16. The description is as above. Conditions: source organism: Zaire ebolavirus.
For assay [6], the target named is HLA-A*68:02. The assay is described as above. Conditions: source organism: Zaire ebolavirus.
The target of assay [7] is HLA-A*24:03. The assay is described as above. The following applies: source organism: Zaire ebolavirus.
The target of assay [8] is HLA-A*03:01. The assay is described as above. The following applies: source organism: Sudan ebolavirus - Maleo (1979).
Assay [9] addresses HLA-A*02:19. The experiment in a line: IEDB peptide-MHC binding, purified MHC/competitive/fluorescence; filed as Kd, often an IC50 or EC50 that approximates it; ≥ and ≤ were set here for values at or beyond the usual limits of such assays. The following applies: source organism: Plasmodium yoelii yoelii.
In assay [10] the target is HLA-A*02:03. The description is as above. The following applies: source organism: Plasmodium yoelii yoelii.
The target of assay [11] is HLA-A*02:12. The assay is described as above. The following applies: source organism: Plasmodium yoelii yoelii.
For assay [12], the target named is HLA-A*23:01. Described as above.
Assay [13] deals with HLA-A*29:02. The assay is described as above. Conditions: source organism: Plasmodium yoelii yoelii.
The target of assay [14] is HLA-A*68:02. Described as above. Conditions: source organism: Plasmodium yoelii yoelii.
For assay [15], the target named is HLA-A*24:03. Described as above. The following applies: source organism: Plasmodium yoelii yoelii.
In assay [16] the target is HLA-A*03:01. The assay is described as above. The following applies: source organism: Plasmodium yoelii yoelii.
The target in a further assay is HLA-B*07:02. The assay is described as above. Conditions: source organism: Yersinia pestis Nepal516.
The target of the next assay is HLA-B*08:01. Described as above. Conditions: source organism: Yersinia pestis Nepal516.
Where [17] appears, read: source organism: Zaire ebolavirus.
Setting [18] is: source organism: Plasmodium yoelii yoelii.

The Kd is the free concentration of one partner at which half of the binding sites on the other are occupied at equilibrium, for simple one-to-one binding. High values mean weaker binding, low ones tighter binding.

With HLSGWELAK, the dissociation constant Kd with HLA-A*02:01 (setting [17]), with HLA-B*46:01 (setting [17]), in the assay with HLA-B*51:01 (setting [17]), in the assay with HLA-B*39:01 (setting [17]), in the assay with HLA-A*69:01 (setting [17]) and with HLA-B*27:03 (setting [17]) was at least 20 µM each time. The Kd with HLA-A*26:01 (setting [17]), with HLA-B*18:01 (setting [17]), with HLA-B*15:01 (setting [17]), with HLA-B*15:17, in the assay with HLA-B*57:01 (setting [17]) and with HLA-A*02:19 [1] was at least 20 µM throughout. In addition, the Kd in the assay with HLA-A*02:03 [2], with HLA-A*02:12 [3], with HLA-A*23:01 [4], with HLA-A*29:02 [5], with HLA-A*02:11 and in the assay with HLA-A*02:16 was at least 20 µM in each case. Moreover, the Kd with HLA-A*68:02 [6] is at least 20 µM; with HLA-A*24:03 [7], at least 20 µM; in the assay with HLA-A*03:01 [8], 0.148 µM.

For the sequence KPPRGVLLY, the Kd with HLA-A*02:19 [9], with HLA-A*02:01 (setting [18]), in the assay with HLA-B*46:01 (setting [18]), with HLA-A*02:03 [10], with HLA-B*51:01 (setting [18]) and with HLA-A*02:12 [11] was at least 20 µM each time. The Kd is at least 20 µM in the assay with HLA-A*23:01 [12] (setting [18]); at least 20 µM in the assay with HLA-B*39:01 (setting [18]); at least 20 µM in the assay with HLA-A*69:01 (setting [18]); 0.115 µM with HLA-A*29:02 [13]; at least 20 µM in the assay with HLA-A*68:02 [14]; at least 20 µM in the assay with HLA-B*27:03 (setting [18]). The Kd in the assay with HLA-A*26:01 (setting [18]), in the assay with HLA-A*24:03 [15], in the assay with HLA-B*18:01 (setting [18]), with HLA-A*03:01 [16], with HLA-B*15:01 (setting [18]) and with HLA-B*57:01 (setting [18]) was at least 20 µM throughout.

Turning to MPLKVQVCI, the figures for the Kd with HLA-B*51:01 (source organism: Yersinia pestis Nepal516), in the assay with HLA-B*07:02 and with HLA-B*08:01 were 1.27 µM, 0.304 µM and 0.816 µM, respectively.

Take TYQVYRYII: in the assay with HLA-A*23:01 [12] (source organism: Yersinia enterocolitica (type O:8)), the Kd was at most 0.0001 µM.
